From the supplement of paper PMC11316812 come the findings set out here.

In series [1] the test system is MCF7. The series is described as follows: percentage of EdU-negative (G0-arrested) nuclei per well, 72 h; higher = more G0 arrest. The note with it: reference: sequence is the full UniProt precursor, the tested protein was the secreted form or ectodomain.
Series [2] deals with hTERT-HMEC. The description is as above. The note with it: reference: sequence is the full UniProt precursor, the tested protein was the secreted form or ectodomain.
The mark [3] stands for this setting: protein concentration 0.0174286 µM.
The mark [4] stands for this setting: protein concentration 0.174286 µM.
Where [5] appears, read: protein concentration 0.00592 µM.
Where [6] appears, read: protein concentration 0.0592 µM.
Where [7] appears, read: protein concentration 0.0257143 µM.
The mark [8] stands for this setting: protein concentration 0.257143 µM.
[9] abbreviates: protein concentration 0.0140425 µM.
The mark [10] stands for this setting: protein concentration 0.140425 µM.
[11] abbreviates: protein concentration 0.0197143 µM.
The mark [12] stands for this setting: protein concentration 0.197143 µM.

± gives the standard deviation of the averaged measurements.
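Also: secreted proteins added to cultured cells, EdU pulse at the end, nuclei found by Hoechst imaging, EdU status from nuclear versus surrounding ring intensity ratio, PBS as neutral control.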

Turning to “MGWLPLLLLLTQCLGVPGQRSPLNDFQVLRGTELQHLLHAVVPGPWQEDVADAEECAGRCGPLMDCRAFHYNVSSHGCQLLPWTQHSPHTRLRRSGRCDLFQKKDYVRTCIMNNGVGYRGTMATTVGGLPCQAWSHKFPNDHKYTPTLRNGLEENFCRNPDGDPGGPWCYTTDPAVRFQSCGIKSCREAACVWCNGEEYRGAVDRTESGRECQRWDLQHPHQHPFEPGKFLDQGLDDNYCRNPDGSERPWCYTTDPQIEREFCDLPRCGSEAQPRQEATTVSCFRGKGEGYRGTANTTTAGVPCQRWDAQIPHQHRFTPEKYACKDLRENFCRNPDGSEAPWCFTLRPGMRAAFCYQIRRCTDDVRPQDCYHGAGEQYRGTVSKTRKGVQCQRWSAETPHKPQFTFTSEPHAQLEENFCRNPDGDSHGPWCYTMDPRTPFDYCALRRCADDQPPSILDPPDQVQFEKCGKRVDRLDQRRSKLRVVGGHPGNSPWTVSLRNRQGQHFCGGSLVKEQWILTARQCFSSCHMPLTGYEVWLGTLFQNPQHGEPSLQRVPVAKMVCGPSGSQLVLLKLERSVTLNQRVALICLPPEWYVVPPGTKCEIAGWGETKGTGNDTVLNVALLNVISNQECNIKHRGRVRESEMCTEGLLAPVGACEGDYGGPLACFTHNCWVLEGIIIPNRVCARSRWPAVFTRVSVFVDWIHKVMRLG [G3XAK1]”, the “percentage of EdU-negative” value in series [1] (setting [3]) stood at 22.6 ± 1.9%; in series [1] (setting [4]), 27.79 ± 0.11%; in series [2] (setting [3]) it was 4.79 ± 0.57%; in series [2] (setting [4]), 5.55 ± 0.076%.
As to “MHLIDYLLLLLVGLLALSHGQLHVEHDGESCSNSSHQQILETGEGSPSLKIAPANADFAFRFYYLIASETPGKNIFFSPLSISAAYAMLSLGACSHSRSQILEGLGFNLTELSESDVHRGFQHLLHTLNLPGHGLETRVGSALFLSHNLKFLAKFLNDTMAVYEAKLFHTNFYDTVGTIQLINDHVKKETRGKIVDLVSELKKDVLMVLVNYIYFKALWEKPFISSRTTPKDFYVDENTTVRVPMMLQDQEHHWYLHDRYLPCSVLRMDYKGDATVFFILPNQGKMREIEEVLTPEMLMRWNNLLRKRNFYKKLELHLPKFSISGSYVLDQILPRLGFTDLFSKWADLSGITKQQKLEASKSFHKATLDVDEAGTEAAAATSFAIKFFSAQTNRHILRFNRPFLVVIFSTSTQSVLFLGKVVDPTKP”, the “percentage of EdU-negative” value is 25 ± 1.3% in series [1] (protein concentration 0.022 µM), 28.9 ± 0.99% in series [1] (protein concentration 0.22 µM), 4.571 ± 0.028% in series [2] (protein concentration 0.022 µM) and 4.09 ± 0.62% in series [2] (protein concentration 0.22 µM).
Consider “MHLLGFFSVACSLLAAALLPGPREAPAAAAAFESGLDLSDAEPDAGEATAYASKDLEEQLRSVSSVDELMTVLYPEYWKMYKCQLRKGGWQHNREQANLNSRTEETIKFAAAHYNTEILKSIDNEWRKTQCMPREVCIDVGKEFGVATNTFFKPPCVSVYRCGGCCNSEGLQCMNTSTSYLSKTLFEITVPLSQGPKPVTISFANHTSCRCMSKLDVYRQVHSIIRRSLPATLPQCQAANKTCPTNYMWNNHICRCLAQEDFMFSSDAGDDSTDGFHDICGPNKELDEETCQCVCRAGLRPASCGPHKELDRNSCQCVCKNKLFPSQCGANREFDENTCQCVCKRTCPRNQPLNPGKCACECTESPQKCLLKGKKFHHQTCSCYRRPCTNRQKACEPGFSYSEEVCRCVPSYWKRPQMS”, for which the “percentage of EdU-negative” value in series [1] (setting [5]) was 25.4 ± 0.75%; in series [1] (setting [6]) it was 25.31 ± 0.24%; in series [2] (setting [5]), 5.07 ± 0.77%; in series [2] (setting [6]), 5.93 ± 0.55%.
Regarding “MHLLLFQLLVLLPLGKTTRHQDGRQNQSSLSPVLLPRNQRELPTGNHEEAEEKPDLFVAVPHLVATSPAGEGQRQREKMLSRFGRFWKKPEREMHPSRDSDSEPFPPGTQSLIQPIDGMKMEKSPLREEAKKFWHHFMFRKTPASQGVILPIKSHEVHWETCRTVPFSQTITHEGCEKVVVQNNLCFGKCGSVHFPGAAQHSHTSCSHCLPAKFTTMHLPLNCTELSSVIKVVMLVEECQCKVKTEHEDGHILHAGSQDSFIPGVSA”, the “percentage of EdU-negative” value in series [1] (setting [7]) is 23.4 ± 3.4%; in series [1] (setting [8]), 24.2 ± 0.59%; in series [2] (setting [7]), 4.67 ± 0.26%; in series [2] (setting [8]) it was 5.44 ± 1.3%.
Consider “MHLRLISWLFIILNFMEYIGSQNASRGRRQRRMHPNVSQGCQGGCATCSDYNGCLSCKPRLFFALERIGMKQIGVCLSSCPSGYYGTRYPDINKCTKCKADCDTCFNKNFCTKCKSGFYLHLGKCLDNCPEGLEANNHTMECVSIVHCEVSEWNPWSPCTKKGKTCGFKRGTETRVREIIQHPSAKGNLCPPTNETRKCTVQRKKCQKGERGKKGRERKRKKPNKGESKEAIPDSKSLESSKEIPEQRENKQQQKKRKVQDKQKSVSVSTVH [Q9BXY4]”, for which the “percentage of EdU-negative” value in series [1] (setting [9]) came out at 23.8 ± 0.26%; in series [1] (setting [10]), 24.3 ± 1.6%; in series [2] (setting [9]), 4.43 ± 0.65%; in series [2] (setting [10]), 5.27 ± 0.29%.
Regarding “MHPHRDPRGLWLLLPSLSLLLFEVARAGRAVVSCPAACLCASNILSCSKQQLPNVPHSLPSYTALLDLSHNNLSRLRAEWTPTRLTQLHSLLLSHNHLNFISSEAFSPVPNLRYLDLSSNQLRTLDEFLFSDLQVLEVLLLYNNHIMAVDRCAFDDMAQLQKLYLSQNQISRFPLELVKEGAKLPKLTLLDLSSNKLKNLPLPDLQKLPAWIKNGLYLHNNPLNCDCELYQLFSHWQYRQLSSVMDFQEDLYCMNSKKLHNVFNLSFLNCGEYKERAWEAHLGDTLIIKCDTKQQGMTKVWVTPSNERVLDEVTNGTVSVSKDGSLLFQQVQVEDGGVYTCYAMGETFNETLSVELKVHNFTLHGHHDTLNTAYTTLVGCILSVVLVLIYLYLTPCRCWCRGVEKPSSHQGDSLSSSMLSTTPNHDPMAGGDKDDGFDRRVAFLEPAGPGQGQNGKLKPGNTLPVPEATGKGQRRMSDPESVSSVFSDTPIVV [Q86WK6]”, the “percentage of EdU-negative” value in series [1] (setting [11]) is 21.9 ± 0.6%; in series [1] (setting [12]), 29.5 ± 1.3%; in series [2] (setting [11]) it was 6.07 ± 0.64%; in series [2] (setting [12]) it was 17.3 ± 0.43%.
